# Measurements from US9234001B2, “Cysteine-free efficient Technetium (Tc) or Rhenium (Re) chelating peptide tags and their use” (Commissariat a L'Energie Atomique et aux Energies …, priority 2008, dated 2016).
# Ends that are not written are not given here.
# Legend:
# [1] = tested on: AR4-2J xenografted tumour; assay: Whole body section imaging with β-imager; assay type: in vivo, mice
# Description: Full Body section analysis: the mice were injected by caudal vein and sacrificed 4 hours later. For imaging, the mice were anesthesied and then immersed in an −80° C. mixture of dry ice and isopentane to prevent CNT tissue redistribution. After blocking the body in mounting medium, tissue sections (20 μm) were made at −20° C. with a slicing microtome (LEICA Microsystems, France). Sections were kept at room temperature for 2 hours in the presence of silica gel to ensure complete drying.
# The quantitative determination of the radioactivity in dried tissue sections and imaging were carried out using a β-imager (Biospace Lab, Paris, France).
# [2] = Cysteine challenge of TcO complexes; assay type: physicochemical; conditions: pH 7.4, 20 h, 310 K
# Description: A solution containing 16 μg of lyophilized TcO[UBI 29-41] (SEQ ID NO: 1) was added to 32 μl of Cysteine solution in PBS pH 7.4. Three concentrations of Cysteine solution were used: 100 mM, 15 mM and 1 mM corresponding respectively to a molar ratio Cysteine:Tc-UBI-WT of 333, 53 and 3. The samples were incubated for 20 h at 310 K prior to HPLC and ESI-MS analysis. Similar experiment was performed for TcO[TGRRR] (SEQ ID: NO 22) complex. 13 μg of lyophilized TGRRR(SEQ ID: NO 22)-TcO complex were added to 64 μl of 15 mM Cysteine solution in PBS pH 7.4 corresponding to a TcO[TGRRR] (SEQ ID: NO 22):Cysteine molar ratio of 50. This solution was incubated for 20 h at room temperature prior to HPLC analysis.
# To be useful for the in vivo application of the TGRRR sequence (SEQ ID NO: 26) to label peptides or proteins, the TcO[TGRRR] (SEQ ID NO: 27) complex must be stable during 1-3 times the period of ^99mTc. The inventors evaluated the stability of the [TcO]^3+ complexes in the case of the peptide UBI-WT (SEQ ID: NO 1) and TGRRR, (peptide P13; SEQ ID NO: 26). To this end, the inventors performed a Cysteine challenge. 16 μg of the TcO[UBI-WT] was added to 1, 15, and 100 mM solutions of Cysteine at pH 7.4 corresponding respectively to molar ratio of 3, 53 and 333. These samples were incubated for 20 h at 310 K. The mixtures were analyzed by HPLC and LC-MS.
# [3] = tested on: AR4-2J xenografted tumour; conditions: mouse, in vivo
# Description: Females Balb/c nude mice weighing 20 g were purchased from Charles River Laboratories (L'Arbresle, France). The mice were kept in a conventional animal facility and had access ad libitum to food and drink. The experimental protocol has been approved by the local ethical committee for animal experimentation.
# Mice were implanted subcutaneously with 5-6 millions AR4-2J cells freshly suspended in sterile PBS. […] After 1 h, 4 h or 24 h time period, the mice were sacrificed by ex-sanguination under anaesthesia. Organs of interest, blood and urine were collected and weighted. The radioactivity was measured with a gamma counter.
# Two control experiments were also conducted.
# [4] = biological target: T1, CHO-SST-2 (mb) (Homo sapiens, UniProt P30874); assay: Binding to somatostatin receptor, CHO-SST-2 membranes
# T1 construct: expressed in transfected cells; host or cells: CHO cell membranes (mb)
# T1 sequence (P30874 whole entry): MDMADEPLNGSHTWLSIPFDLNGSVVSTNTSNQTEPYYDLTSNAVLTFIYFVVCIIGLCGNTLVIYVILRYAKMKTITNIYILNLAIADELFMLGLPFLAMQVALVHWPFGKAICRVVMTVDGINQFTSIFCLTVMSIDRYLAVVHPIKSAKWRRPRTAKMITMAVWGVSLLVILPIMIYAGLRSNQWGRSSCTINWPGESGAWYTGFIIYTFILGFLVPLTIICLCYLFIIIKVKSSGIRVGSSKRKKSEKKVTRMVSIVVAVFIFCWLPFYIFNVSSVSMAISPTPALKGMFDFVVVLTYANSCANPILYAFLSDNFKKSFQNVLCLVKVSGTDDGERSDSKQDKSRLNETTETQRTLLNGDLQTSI
# [5] = 30 equivalents of Cysteine; cited from earlier work
compound,measurement,setting,value
TcO[HTGRRRGG-RC-121]: TcO complex of HTGRRRGG-RC-121,"radioactivity uptake in the tumour region, β-imaging of whole body section","[1]; group 1, 4 hours post injection",important uptake of the labelled compound in this region
same,"radioactivity uptake in the tumour region, β-imaging of whole body section","[1]; group 2, 125-fold excess of RC-121, 4 hours post injection",absence of radioactivity uptake
TcO[HTGRRR]: [TcO]3+ complex of the TGRRR peptide (P13) (TGRRR-OH; also: TcO complex),initial [TcO]3+ complex observed,[2]; 15 mM Cysteine,57%
same,Tumor/Blood Ratio,[3],1
same,Tumor/Muscle Ratio,[3],2.6
same,radioactivity in Adrenals,[3],2.2 ± 4.7 % ID/g
same,radioactivity in Bile,[3],6.6 ± 2.4 % ID/g
same,radioactivity in Blood,[3],0.3 ± 0.3 % ID/g
same,radioactivity in Brain,[3],0.1 ± 0.2 % ID/g
same,radioactivity in Carcass,[3],0.2 ± 0.1 % ID/g
same,radioactivity in Heart,[3],0.7 ± 0.6 % ID/g
same,radioactivity in Intestines,[3],1.3 ± 0.8 % ID/g
same,radioactivity in Kidneys,[3],21.9 ± 9.5 % ID/g
same,radioactivity in Liver,[3],2.1 ± 0.5 % ID/g
same,radioactivity in Lungs,[3],0.6 ± 0.8 % ID/g
same,radioactivity in Muscle,[3],0.8 ± 1.23 % ID/g
same,radioactivity in Pancreas,[3],0.3 ± 0.6 % ID/g
same,radioactivity in Spleen,[3],0.7 ± 0.6 % ID/g
same,radioactivity in Stomach,[3],2.6 ± 2.2 % ID/g
same,radioactivity in Tail,[3],5.3 ± 4.5 % ID/g
same,radioactivity in Urine,[3],8.6 ± 5.5 % ID/g
CC(C)[C@@H]1NC(=O)[C@H](CCCCN)NC(=O)[C@@H](Cc2c[nH]c3ccccc23)NC(=O)[C@H](Cc2ccc(O)cc2)NC(=O)[C@@H](NC(=O)[C@@H](Cc2ccccc2)NC(=O)CNC(=O)CNC(=O)[C@H](CCCNC(=N)N)NC(=O)[C@H](CCCNC(=N)N)NC(=O)[C@H](CCCNC(=N)N)NC(=O)CNC(=O)[C@@H](N)[C@@H](C)O)CSSC[C@@H](C(=O)N[C@H](C(N)=O)[C@@H](C)O)NC1=O,Ki,[4],20 pM
"[AGGG]TcO complex: TcO complex of the peptide AGGG (SEQ ID NO: 31), from the literature (also: TcO complex)",stability against Cysteine,[5],completely unstable
"TGRAKRRMQYNRR (Ac-TGRAKRRMQYNRR-NH2) [SEQ ID NO: 1, N-acetylated, C-amidated tridecamer, residue 29 to 41 of the protein Ubiquicidine]",initial [TcO]3+ complex observed,[2]; 1 mM Cysteine,more than 95%
same,initial [TcO]3+ complex observed,[2]; 15 mM Cysteine,69%
same,initial [TcO]3+ complex observed,[2]; 100 mM Cysteine,10%
